Results from US20200199192A1 (SHIRE NPS PHARMACEUTICALS, published 2020).

Key:
[1] = molecular target: the molecule itself; assay: NanoDSF at room temperature, self-association
Excerpt: Only the tryptophan fluorescence from the protein contributes to the signal. If tryptophan is buried or stable, the peak is at 330 nm and if the tryptophan is exposed or flexible, the peak is at 350 nm.

[2] = molecular target: the molecule itself; assay: microscale thermophoresis (MST), self-association; MST
Procedure: Microscale thermophoresis (MST) and nano differential scanning fluorimetry (NanoDSF) were performed to characterize the dimer-monomer transition. MST was used to determine the monomer/dimer equilibrium dissociation constant Kd. MST is based on thermodriven diffusion of molecules while NanoDSF is based on Trp fluorescence and is commonly used for thermostability Tm.

## HGDGSFSDEMNTILDNLAARDFINWLIQTKITD (also called Gattex) [teduglutide]
[1]
  Kd: 77 µM
[2]
  Kd: 24 µM
